± gives the uncertainty stated by the source.
Test: protein stability index of a GFP-peptide fusion (yeast GPS) (PSI 1-4); higher = more stable; sorted into four equal gates, so the index is relative within each strain
Procedure, shortened: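 Plasmids isolated from each sorting gate were PCR-amplified and Illumina-sequenced, and barcodes assigned the reads to strains. The gates, four of equal size, were set by GFP/Cherry fluorescence ratio on mid-log cultures in leucine-free medium. These cultures were yeast carrying a pooled library of tiled 17-residue yeast protein peptides fused downstream of GFP on a plasmid that also expresses Cherry. The protein stability index is the sum of every gate's read frequency times its gate number.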

| Sequence | protein stability index (doa10∆) | protein stability index (pdr5∆) | protein stability index (san1∆) | protein stability index (ubr1∆) |
| --- | --- | --- | --- | --- |
| LETLEHNGAPHHAIEEA [RPO21] | 3.34 ± 0.12 | 3.01 ± 0.1 | 2.94 ± 0.09 | 2.95 ± 0.19 |
| ANFIFSPASGIVDKYIG [RPT4] | 2.81 ± 0.067 | 2.79 ± 0.097 | 1.93 ± 0.12 | 2.42 ± 0.077 |
| QDDADPMVSVMKMDKSP [RPT2] | 1.16 ± 0.065 | 1.27 ± 0.079 | 1.29 ± 0.26 | 1.52 ± 0.073 |
| WNLEKWREIIEKVRDYE [IRR1] | 3.06 ± 0.12 | 3.41 ± 0.15 | 3.3 ± 0.054 | 3.19 ± 0.066 |
| PYAVLSQFYELRDREDW [YJR042W/NUP85] | 2.16 ± 0.16 |  | 2.31 ± 0.21 | 2.71 ± 0.18 |
| LATGPNLTSEIEDLRAD [YOR098C/NUP1] | 3.42 ± 0.11 | 3.25 ± 0.11 | 3.12 ± 0.06 | 3.25 ± 0.082 |
| FNYGKLPLPPSVEWMKV [SIN4] | 2.6 ± 0.11 | 2.93 ± 0.093 | 2.93 ± 0.065 | 2.92 ± 0.064 |
| GAHGYSGFYTFSLLDHH [PRE1] | 2.94 ± 0.19 | 2.44 ± 0.16 | 2.92 ± 0.098 | 2.76 ± 0.12 |
| KIYRVGKGDDEANGATS [RPL3] | 3.45 ± 0.071 | 3.6 ± 0.1 | 3.67 ± 0.045 | 3.22 ± 0.11 |
| VAARGLDIPNVSLVVNF [PRP28] | 2 ± 0.12 | 2.5 ± 0.096 | 2.04 ± 0.12 | 3.1 ± 0.15 |
| SFHVQKKTCSSCGYPAA [RPL37A] | 1.85 ± 0.091 | 2.13 ± 0.11 | 1.71 ± 0.16 | 2.06 ± 0.068 |
| VHGKAPMLMANNDVFTI [SSN3] | 2.79 ± 0.068 | 2.47 ± 0.07 | 2.48 ± 0.095 | 2.72 ± 0.074 |
| QEKNFQTGIFVYQNNIT [RPB5] | 2.49 ± 0.064 | 1.52 ± 0.064 | 2.88 ± 0.09 | 2.38 ± 0.082 |
| IPKLKPAPINSLSRDFV [SNU114] | 2.92 ± 0.052 | 2.8 ± 0.061 | 2.68 ± 0.039 | 2.75 ± 0.047 |
| EQVAEEAAAAEEGEEEE [RPS0B] |  | 3.33 ± 0.26 |  |  |
| FLQDKVQIKDVNDRYQI [CSI1] | 3.28 ± 0.18 | 1.58 ± 0.12 | 1.05 ± 0.17 | 3.37 ± 0.21 |
| ERFTKSKTLSLIQSYSL [FAS1] | 2.29 ± 0.063 | 2.06 ± 0.043 | 1.93 ± 0.11 | 2.06 ± 0.039 |
| MGGIREKKAEYFAKLRE [RPP0] | 3.48 ± 0.081 | 3.37 ± 0.082 | 3.13 ± 0.061 | 3.55 ± 0.095 |
| DDIFIRYLTLLSNEFTA [ECM29] | 2.14 ± 0.056 | 1.91 ± 0.051 | 2.44 ± 0.074 | 1.76 ± 0.029 |
| SDIKQGYTQHGGLRPFG [PRE9] | 3.5 ± 0.13 | 2.53 ± 0.23 | 3.58 ± 0.15 |  |
| DHLVSSIPMGGQSINDS [ARP9] | 2.78 ± 0.11 | 2.89 ± 0.093 | 3.08 ± 0.068 | 3.13 ± 0.1 |
| SRPLKKVKILEQIDENW [SWI3] | 2.94 ± 0.077 | 3.11 ± 0.067 | 2.82 ± 0.072 | 2.99 ± 0.044 |
| YPVHEAHKGQIVLIKGI [SNU114] | 1.52 ± 0.095 | 2.45 ± 0.088 | 1.37 ± 0.15 | 2.87 ± 0.088 |
| RLKYALNGREVKAILMQ [RPS4A] | 1.74 ± 0.073 | 1.39 ± 0.062 | 1.62 ± 0.18 | 1.24 ± 0.05 |
| EWHSSLTLKEAELLVLK [PUP2] |  | 2.47 ± 0.27 |  | 1.63 ± 0.25 |
| VVGLGERVSPTDIEEGM [RPT1] |  | 3.33 ± 0.24 |  |  |
| KCIKYSEKLITKYFEPT [ECM29] | 2.63 ± 0.12 | 3.03 ± 0.13 | 2.84 ± 0.05 | 2.68 ± 0.074 |

| Sequence | protein stability index (doa10∆) | protein stability index (pdr5∆) | protein stability index (san1∆) | protein stability index (ubr1∆) |
| --- | --- | --- | --- | --- |
| IRQAIAKGLVAYHQKYV [RPS16A] | 1.21 ± 0.096 | 1.27 ± 0.069 | 1.41 ± 0.18 | 1.1 ± 0.033 |
| VRSTIKFQLKKVLCLAV [RPL1A] | 1.45 ± 0.051 | 1.35 ± 0.053 | 1.29 ± 0.089 | 1.18 ± 0.037 |
| MPQSFTSIARIGDYILK [QCR7] | 3.35 ± 0.2 | 3.33 ± 0.12 | 3.04 ± 0.15 | 3.1 ± 0.062 |
| APVETKKKRFEIKKWTA [HRT1] | 3.15 ± 0.094 | 3.48 ± 0.13 | 2.93 ± 0.12 | 3.27 ± 0.09 |
| LKIFEGIPPPYDKKKRV [RPL16B] | 1.43 ± 0.15 | 2.51 ± 0.087 | 1.33 ± 0.24 | 1.51 ± 0.066 |
| GYTQHGGLRPFGVSFIY [PRE9] | 2.67 ± 0.22 | 2.03 ± 0.098 | 1.84 ± 0.1 | 1.65 ± 0.064 |
| AAKGSSTSYAIKKKDEL [RPS5] | 3.4 ± 0.18 | 1.82 ± 0.085 | 3.35 ± 0.087 | 3.28 ± 0.13 |
| IDKITDGLGNVVDFTSL [YMR129W/POM152] | 3.41 ± 0.11 | 3.53 ± 0.13 | 3.37 ± 0.061 | 3.45 ± 0.1 |
| NGCIFTLNPKTGHLFLK [PRP8] | 3.24 ± 0.064 | 2.92 ± 0.082 | 2.98 ± 0.083 | 2.97 ± 0.083 |
| KDNVEHLVMRAISLGLL [RPN9] | 2.43 ± 0.075 | 2.92 ± 0.074 | 2.48 ± 0.071 | 2.76 ± 0.059 |
| VHMYHKSLALLGYNFDG [SNF5] | 2.26 ± 0.059 | 1.78 ± 0.046 | 2.02 ± 0.08 | 2.02 ± 0.05 |
| SKLDIYTQQQALEYIGA [RET1] | 1.94 ± 0.12 | 2.23 ± 0.1 | 2.59 ± 0.12 | 1.89 ± 0.13 |
| GKHSQEQNSSSAKPSQI [SIR4] | 2.97 ± 0.067 | 3.24 ± 0.072 | 3.02 ± 0.06 | 3.24 ± 0.052 |
| KILNLEKPLILADYIVE [NUT1] | 1.58 ± 0.1 | 1.56 ± 0.061 | 1.22 ± 0.18 | 1.3 ± 0.07 |
| LNSTLESLYDLIEFQPS [MED6] | 2.8 ± 0.049 | 2.85 ± 0.046 | 2.88 ± 0.039 | 2.76 ± 0.048 |
| ESLYDLIEFQPSQGVHY [MED6] | 2.84 ± 0.078 | 2.87 ± 0.061 | 2.91 ± 0.051 | 2.7 ± 0.051 |
| ANAMNRMAKLCARFLGN [RPO31] | 3.12 ± 0.21 |  |  |  |
| EGLELLGWIHTQTEELK [PRP8] | 2.94 ± 0.1 | 2.65 ± 0.091 | 3.16 ± 0.053 | 3.29 ± 0.099 |
| FIESIVVDFKNKENDNV [SNF12] | 2.55 ± 0.15 | 3.04 ± 0.18 |  | 3.03 ± 0.27 |
| VLPIFTTVFFSRQKSGL [YML031W/NDC1] | 1.53 ± 0.075 | 1.24 ± 0.082 | 1.14 ± 0.095 | 1.11 ± 0.077 |
| NKAQAKMDKRAKNSDSA [RPL8A] | 3.43 ± 0.094 | 3.38 ± 0.11 | 3.27 ± 0.047 | 3.54 ± 0.067 |
| DVKFPSNTTTQIQFTPL [SMC3] | 2.59 ± 0.16 | 2.64 ± 0.15 | 2.98 ± 0.14 | 2.76 ± 0.052 |
| LEANGRSLEKVNNSVSK [SSN2] | 3.48 ± 0.15 | 3.47 ± 0.12 | 3.18 ± 0.11 | 3.37 ± 0.1 |
| QPIEKNGDKMPLKFKLG [YJR042W/NUP85] | 2.74 ± 0.064 | 2.98 ± 0.069 | 2.52 ± 0.086 | 3.08 ± 0.042 |
| VIQDEVLAHRIGLVPLK [RPC40] | 2.94 ± 0.27 |  |  |  |
| CINELDNWNAPLIMATC [RPO31] | 3.18 ± 0.16 | 2.66 ± 0.14 | 3.3 ± 0.07 | 3.54 ± 0.12 |

From the supplement of paper PMC9732359
